Laboratory results published in patent US20120322862.

Biological target: 4-1BB (TNFRSF9) extracellular domain (Homo sapiens) (UniProt Q07011)
Assay: competition
Conditions: all dT replaced by TrpdU (5-(N-tryptaminocarboxyamide)-2'-deoxyuridine); all C 5-methyl-dC; inhibition of 4-1BB ligand capture by receptor on Protein A beads (co-IP); PBS/0.02% Tween-20, 37 C

CCTGCACCCAGTGTCCCNGANGGGGNNNNNNAGNNGNANNNNGNAANGGNGGANGNNGANGGAGAGGAGGANGG [1684-40]
IC50: 810 pM
